Test [1] has as its target EcSkp, biotin conjugate (naked chaperone without fused target) (Escherichia coli) (UniProt P0AEU7). Description: asymmetric DAGS ECL, Skp-Bi and FkpA-Ru 250 ng/ml each; sample: pool of anti-HTLV-negative human sera; background signal, duplicate 1.
The target is the same in test [2]. Description: asymmetric DAGS ECL, Skp-Bi and FkpA-Ru 10 ng/ml each; sample: pool of anti-HTLV-negative human sera; background signal, duplicate 1.
The target is the same in test [3]. Description: asymmetric DAGS ECL, Skp-Bi and FkpA-Ru 10 ng/ml each; sample: pool of anti-HTLV-negative human sera; background signal, duplicate 2.
For test [4] the target is unchanged. In words: asymmetric DAGS ECL, Skp-Bi and FkpA-Ru 250 ng/ml each; sample: pool of anti-HTLV-negative human sera; background signal, duplicate 2.
In test [5] the target is EcFkpA, biotin conjugate (naked chaperone without fused target) (Escherichia coli) (UniProt P45523). Description: asymmetric DAGS ECL, FkpA-Bi and Skp-Ru 10 ng/ml each; sample: pool of anti-HTLV-negative human sera; background signal, duplicate 2.
UniProt P45523, sequence (P45523 26-270 limits assumed): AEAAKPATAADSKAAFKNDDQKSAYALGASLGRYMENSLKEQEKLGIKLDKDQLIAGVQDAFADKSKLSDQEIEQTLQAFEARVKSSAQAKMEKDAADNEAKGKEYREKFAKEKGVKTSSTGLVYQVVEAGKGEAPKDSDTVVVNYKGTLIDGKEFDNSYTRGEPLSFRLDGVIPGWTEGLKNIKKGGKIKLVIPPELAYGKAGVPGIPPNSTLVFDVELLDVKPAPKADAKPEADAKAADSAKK
The target is the same in test [6]. In words: asymmetric DAGS ECL, FkpA-Bi and Skp-Ru 250 ng/ml each; sample: pool of anti-HTLV-negative human sera; background signal, duplicate 2.
The target is the same in test [7]. In words: asymmetric DAGS ECL, FkpA-Bi and Skp-Ru 10 ng/ml each; sample: pool of anti-HTLV-negative human sera; background signal, duplicate 1.
The target is the same in test [8]. Description: asymmetric DAGS ECL, FkpA-Bi and Skp-Ru 250 ng/ml each; sample: pool of anti-HTLV-negative human sera; background signal, duplicate 1.

UniProt P0AEU7, sequence (P0AEU7 21-161 limits assumed): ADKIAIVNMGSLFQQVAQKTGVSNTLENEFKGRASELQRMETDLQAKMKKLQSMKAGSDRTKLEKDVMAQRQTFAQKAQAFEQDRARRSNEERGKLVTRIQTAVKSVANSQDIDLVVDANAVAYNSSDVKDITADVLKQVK

Take “EcFkpA, ruthenium conjugate (naked chaperone without fused target) (from UniProt P45523 26-270)”: the Signal (counts) worked out at 2670 counts in test [1], 567 counts in test [2], 561 counts in test [3] and 2760 counts in test [4].

Turning to “EcSkp, ruthenium conjugate (naked chaperone without fused target) (from UniProt P0AEU7 21-161)”, the Signal (counts) came to 439 counts in test [5], 864 counts in test [6], 447 counts in test [7] and 854 counts in test [8].

The values above are taken from patent US20170184591A1.
